# Test results reported in article PMC8794802.
# Positions count from the first letter of the chain named.
# B1: CDC8 (cdc8-FL, 61 nt) (ssRNA)
# RNA: GUCAAUCACGAUUGUAGACGUUACUAAUAAGGGCAUUCAGGAAGUUGAAGCGCUUAUUUGG
# Key:
# Assay in all cases: EMSA
# Pus7 D256A/N305A = target: T1, Pus7 D256A/N305A (Saccharomyces cerevisiae, UniProt Q08647 1-676, D256A;N305A)
# T1 sequence: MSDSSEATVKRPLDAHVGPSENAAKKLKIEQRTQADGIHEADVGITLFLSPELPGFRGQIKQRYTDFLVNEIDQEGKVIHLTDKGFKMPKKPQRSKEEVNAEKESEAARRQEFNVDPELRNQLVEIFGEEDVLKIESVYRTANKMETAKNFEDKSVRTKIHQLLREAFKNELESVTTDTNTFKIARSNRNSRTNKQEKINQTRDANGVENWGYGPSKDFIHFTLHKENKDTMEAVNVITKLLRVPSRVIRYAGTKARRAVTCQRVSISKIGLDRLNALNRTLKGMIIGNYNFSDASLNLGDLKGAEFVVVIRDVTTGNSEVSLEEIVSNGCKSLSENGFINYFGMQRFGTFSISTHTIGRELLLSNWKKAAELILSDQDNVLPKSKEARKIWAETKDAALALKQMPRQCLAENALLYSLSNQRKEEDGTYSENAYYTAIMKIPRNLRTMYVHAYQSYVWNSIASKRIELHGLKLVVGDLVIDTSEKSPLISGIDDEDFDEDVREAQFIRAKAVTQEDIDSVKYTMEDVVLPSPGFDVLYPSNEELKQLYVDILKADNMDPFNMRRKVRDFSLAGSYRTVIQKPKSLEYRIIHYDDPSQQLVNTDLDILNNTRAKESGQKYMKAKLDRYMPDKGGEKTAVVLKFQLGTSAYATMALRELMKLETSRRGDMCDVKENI
# Pus7 D256A/E71A = target: T2, Pus7 D256A/E71A (Saccharomyces cerevisiae, UniProt Q08647 1-676, E71A;D256A)
# T2 sequence: T1 sequence with E71A, A305N
# Pus7 D256A/H161A = target: T3, Pus7 D256A/H161A (Saccharomyces cerevisiae, UniProt Q08647 1-676, H161A;D256A)
# T3 sequence: T1 sequence with H161A, A305N
binder,measurement,setting,value
B1,Kd,Pus7 D256A/N305A,230 ± 60 nM
same,Kd,Pus7 D256A/E71A,210 ± 50 nM
same,Kd,Pus7 D256A/H161A,170 ± 40 nM
